In this assay the target is SNAP-LepR:EGFR complex (UniProt P48356). Briefly: FRET or BRET. Background: In BRET a luciferase serves as donor, and the signal depends on an acceptor being close.

In turn, EGF-d2 (ligand) showed a Kd of 2.1 nM.

The Kd is the concentration at which binding is half-saturated. Low readings indicate a tighter complex, high ones a looser complex.

(Values after paper PMC7611554.)
